From the supplement of paper PMC7877785
± gives the uncertainty stated by the source.

Experiment: self-splicing fitness, log relative to wild type (ln ratio); higher = more splicing; Tetrahymena group I intron in knt gene, E. coli kanamycin selection, DiMSum; sequences stand for … in CUCUCU…GGAGGGAAAAGUUAUCAGGCAUGCACCUGGUAGCUAGUCUUUAAACCAAUAGAUUGCAUCGGUUUAAAAGGCAAGACCGUCAAAUUGCGGGAAAGGGGUCAACAGCCGUUCAGUACCAAGUCUCAGGGGAAACUUUGAGAUGGCCUUGCAAAGGGUAUGGUAAUAAGCUGACGGACAUGGUCCUAACCACGCAGCCAAGUCCUAAGUCAACAGAUCUUCUGUUGAUAUGGAUGCAGUUCACAGACUAAAUGUCGGUCGGGGAAGAUGUAUUCUUCUCAUAAGAUAUAGUCGGACCUCUCCUUAAUGGGAGCUAGCGGAUGAAGUGAUGCAACACUGGAGCCGCUGGGAACUAAUUUGUAUGCGAAAGUAUAUUGAUUAGUUUUGGAGUACUCGUGGUCG
In short: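 Pooled colonies went to amplicon sequencing on an Illumina HiSeq 2500 after six replicate transformations. The plates were LB agar with 100 μg/mL carbenicillin, 50 μM IPTG and 0.2% rhamnose, with or without 25 μg/mL kanamycin, incubated overnight at 37°C or 30°C. The E. coli BL21(DE3) library had all eight P1ex-region intron nucleotides randomised, the intron placed in the knt kanamycin-resistance gene on pET-22b(+). DiMSum fitness is the error-weighted combination of replicate fold changes, kanamycin against none, normalised to wild type.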

GUCCAGCAAUAUUACGUAUG
self-splicing fitness (ln) (30 °C): -2.76 ± 0.1
self-splicing fitness (ln) (37 °C): -1.06 ± 0.11

CAAAAGCAAUAUUACGCGCG
self-splicing fitness (ln) (30 °C): -0.71 ± 0.082
self-splicing fitness (ln) (37 °C): -0.59 ± 0.09

GCAAAGCAAUAUUACGGAUG
self-splicing fitness (ln) (30 °C): -2.52 ± 0.12
self-splicing fitness (ln) (37 °C): -1.74 ± 0.13

AUUAAGCAAUAUUACGGCCC
self-splicing fitness (ln) (30 °C): -0.404 ± 0.27
self-splicing fitness (ln) (37 °C): -0.419 ± 0.27

UCUUAGCAAUAUUACGUAAA
self-splicing fitness (ln) (30 °C): -3.58 ± 0.29
self-splicing fitness (ln) (37 °C): -2.38 ± 0.25

UUUAAGCAAUAUUACGGUUU
self-splicing fitness (ln) (30 °C): -2.53 ± 0.28
self-splicing fitness (ln) (37 °C): -1.51 ± 0.22

UACCAGCAAUAUUACGCAGC
self-splicing fitness (ln) (30 °C): -2.72 ± 0.18
self-splicing fitness (ln) (37 °C): -1.87 ± 0.23

AUUAAGCAAUAUUACGGCAC
self-splicing fitness (ln) (30 °C): -1 ± 0.086
self-splicing fitness (ln) (37 °C): -0.297 ± 0.11

CGAAAGCAAUAUUACGGAAG
self-splicing fitness (ln) (30 °C): -0.208 ± 0.097
self-splicing fitness (ln) (37 °C): -0.546 ± 0.11

CAUUAGCAAUAUUACGUGGC
self-splicing fitness (ln) (30 °C): -2.79 ± 0.36
self-splicing fitness (ln) (37 °C): -2.09 ± 0.33

GGCCAGCAAUAUUACGCUAC
self-splicing fitness (ln) (30 °C): -4.15 ± 0.3
self-splicing fitness (ln) (37 °C): -2.57 ± 0.23

AAUUAGCAAUAUUACGGGCU
self-splicing fitness (ln) (30 °C): -2.04 ± 0.23
self-splicing fitness (ln) (37 °C): -1.64 ± 0.26

CAGAAGCAAUAUUACGCGAC
self-splicing fitness (ln) (37 °C): -2.94 ± 0.32

AUAUAGCAAUAUUACGUAUA
self-splicing fitness (ln) (30 °C): -2.12 ± 0.23
self-splicing fitness (ln) (37 °C): -0.454 ± 0.17

GAAAAGCAAUAUUACGGAUC
self-splicing fitness (ln) (30 °C): -1.04 ± 0.072
self-splicing fitness (ln) (37 °C): -0.773 ± 0.087

GGGCAGCAAUAUUACGCGAA
self-splicing fitness (ln) (30 °C): -0.567 ± 0.073
self-splicing fitness (ln) (37 °C): 0.0161 ± 0.099

UUGCAGCAAUAUUACGCCGU
self-splicing fitness (ln) (30 °C): -3.46 ± 0.36
self-splicing fitness (ln) (37 °C): -1.41 ± 0.3

AACGAGCAAUAUUACGGCCU
self-splicing fitness (ln) (30 °C): -1.16 ± 0.2
self-splicing fitness (ln) (37 °C): -0.95 ± 0.2

ACGAAGCAAUAUUACGCGAU
self-splicing fitness (ln) (30 °C): -2.21 ± 0.13
self-splicing fitness (ln) (37 °C): -0.777 ± 0.14

UCAGAGCAAUAUUACGCGGA
self-splicing fitness (ln) (30 °C): -2.96 ± 0.33
self-splicing fitness (ln) (37 °C): -1.64 ± 0.17

GUCCAGCAAUAUUACGUAAG
self-splicing fitness (ln) (30 °C): -0.607 ± 0.071
self-splicing fitness (ln) (37 °C): -0.277 ± 0.11

UAUAAGCAAUAUUACGAUAC
self-splicing fitness (ln) (37 °C): -2.39 ± 0.33

ACCCAGCAAUAUUACGCCUU
self-splicing fitness (ln) (30 °C): -0.51 ± 0.062
self-splicing fitness (ln) (37 °C): 0.161 ± 0.081

AGCGAGCAAUAUUACGCUCG
self-splicing fitness (ln) (30 °C): -3.5 ± 0.27
self-splicing fitness (ln) (37 °C): -2.34 ± 0.49

CGGAAGCAAUAUUACGGCAC
self-splicing fitness (ln) (30 °C): -2.4 ± 0.25
self-splicing fitness (ln) (37 °C): -1.75 ± 0.38

AUUUAGCAAUAUUACGUUAU
self-splicing fitness (ln) (30 °C): -2.2 ± 0.2
self-splicing fitness (ln) (37 °C): -1.95 ± 0.24

UCUCAGCAAUAUUACGAAAC
self-splicing fitness (ln) (30 °C): -2.16 ± 0.26
self-splicing fitness (ln) (37 °C): -2.29 ± 0.5

ACGUAGCAAUAUUACGUAAG
self-splicing fitness (ln) (30 °C): -3.51 ± 0.17
self-splicing fitness (ln) (37 °C): -2.45 ± 0.22

GAUAAGCAAUAUUACGGAUA
self-splicing fitness (ln) (30 °C): -1.73 ± 0.12
self-splicing fitness (ln) (37 °C): -1.31 ± 0.15

GGGAAGCAAUAUUACGAUGA
self-splicing fitness (ln) (30 °C): -0.977 ± 0.13
self-splicing fitness (ln) (37 °C): -0.771 ± 0.13

UACAAGCAAUAUUACGGACU
self-splicing fitness (ln) (30 °C): -1.22 ± 0.079
self-splicing fitness (ln) (37 °C): -0.00357 ± 0.085

AACGAGCAAUAUUACGGCUA
self-splicing fitness (ln) (30 °C): -1.23 ± 0.15
self-splicing fitness (ln) (37 °C): -0.829 ± 0.18

GCACAGCAAUAUUACGUCAG
self-splicing fitness (ln) (30 °C): -2.44 ± 0.12
self-splicing fitness (ln) (37 °C): -2.48 ± 0.21

GUCGAGCAAUAUUACGAGUA
self-splicing fitness (ln) (30 °C): -2.24 ± 0.45
self-splicing fitness (ln) (37 °C): -1.13 ± 0.25

CCGAAGCAAUAUUACGUCCG
self-splicing fitness (ln) (30 °C): -0.46 ± 0.11
self-splicing fitness (ln) (37 °C): -0.429 ± 0.095

UUCCAGCAAUAUUACGGCCU
self-splicing fitness (ln) (30 °C): -4.05 ± 0.42
self-splicing fitness (ln) (37 °C): -1.58 ± 0.17

UGUGAGCAAUAUUACGAUCC
self-splicing fitness (ln) (30 °C): -2.29 ± 0.31
self-splicing fitness (ln) (37 °C): -1.87 ± 0.39

CCCAAGCAAUAUUACGGCGU
self-splicing fitness (ln) (30 °C): -3.85 ± 0.19
self-splicing fitness (ln) (37 °C): -2.4 ± 0.13

UUCCAGCAAUAUUACGACUU
self-splicing fitness (ln) (30 °C): -1.5 ± 0.18
self-splicing fitness (ln) (37 °C): -0.653 ± 0.2

GGUGAGCAAUAUUACGGUCC
self-splicing fitness (ln) (30 °C): -1.66 ± 0.13
self-splicing fitness (ln) (37 °C): -0.523 ± 0.15

UACGAGCAAUAUUACGACUG
self-splicing fitness (ln) (30 °C): -0.684 ± 0.24
self-splicing fitness (ln) (37 °C): -1.35 ± 0.17

AUAUAGCAAUAUUACGUAAU
self-splicing fitness (ln) (30 °C): -1.02 ± 0.073
self-splicing fitness (ln) (37 °C): -0.751 ± 0.12

AUCUAGCAAUAUUACGGACC
self-splicing fitness (ln) (30 °C): -0.962 ± 0.16
self-splicing fitness (ln) (37 °C): -0.141 ± 0.23

UCCUAGCAAUAUUACGCUAU
self-splicing fitness (ln) (30 °C): -2.89 ± 0.21
self-splicing fitness (ln) (37 °C): -2.43 ± 0.27

UUCCAGCAAUAUUACGGGGU
self-splicing fitness (ln) (30 °C): -3.02 ± 0.12
self-splicing fitness (ln) (37 °C): -2.81 ± 0.17

CGCGAGCAAUAUUACGUAUC
self-splicing fitness (ln) (30 °C): -3.93 ± 0.34
self-splicing fitness (ln) (37 °C): -3.93 ± 0.36

CCUAAGCAAUAUUACGAUGA
self-splicing fitness (ln) (30 °C): -3.09 ± 0.21
self-splicing fitness (ln) (37 °C): -1.84 ± 0.18

AAUCAGCAAUAUUACGUAGC
self-splicing fitness (ln) (30 °C): -1.93 ± 0.093
self-splicing fitness (ln) (37 °C): -0.229 ± 0.12

CGAUAGCAAUAUUACGCAUC
self-splicing fitness (ln) (30 °C): -3.16 ± 0.31
self-splicing fitness (ln) (37 °C): -1.94 ± 0.38

AUAAAGCAAUAUUACGAGAC
self-splicing fitness (ln) (30 °C): -2.89 ± 0.17
self-splicing fitness (ln) (37 °C): -1.63 ± 0.19

GCCGAGCAAUAUUACGUCCA
self-splicing fitness (ln) (30 °C): -1.27 ± 0.48
self-splicing fitness (ln) (37 °C): -1.32 ± 0.32

GAUAAGCAAUAUUACGUGCC
self-splicing fitness (ln) (30 °C): -0.717 ± 0.1
self-splicing fitness (ln) (37 °C): -0.548 ± 0.13

UGCCAGCAAUAUUACGCCCC
self-splicing fitness (ln) (30 °C): -2.29 ± 0.26
self-splicing fitness (ln) (37 °C): -1.44 ± 0.29

UAAAAGCAAUAUUACGCGCU
self-splicing fitness (ln) (30 °C): -1.22 ± 0.14
self-splicing fitness (ln) (37 °C): 0.0478 ± 0.17

UAGGAGCAAUAUUACGGUGG
self-splicing fitness (ln) (30 °C): -2.79 ± 0.21
self-splicing fitness (ln) (37 °C): -0.497 ± 0.17

CGCCAGCAAUAUUACGUGUA
self-splicing fitness (ln) (30 °C): -3.04 ± 0.097
self-splicing fitness (ln) (37 °C): -1.04 ± 0.072

GUCCAGCAAUAUUACGACUU
self-splicing fitness (ln) (30 °C): -1.65 ± 0.078
self-splicing fitness (ln) (37 °C): -0.203 ± 0.085

CCAGAGCAAUAUUACGGUUA
self-splicing fitness (ln) (30 °C): -2.7 ± 0.18
self-splicing fitness (ln) (37 °C): -2.01 ± 0.25

AUAUAGCAAUAUUACGCACA
self-splicing fitness (ln) (30 °C): -0.73 ± 0.19
self-splicing fitness (ln) (37 °C): -0.28 ± 0.23

AGGUAGCAAUAUUACGUACC
self-splicing fitness (ln) (30 °C): -1.99 ± 0.028
self-splicing fitness (ln) (37 °C): -1.14 ± 0.042

AAGCAGCAAUAUUACGAGUU
self-splicing fitness (ln) (30 °C): -1.95 ± 0.077
self-splicing fitness (ln) (37 °C): -1.07 ± 0.086

UAAGAGCAAUAUUACGUAAA
self-splicing fitness (ln) (30 °C): -3.2 ± 0.37
self-splicing fitness (ln) (37 °C): -1.89 ± 0.33

AUGUAGCAAUAUUACGUGAG
self-splicing fitness (ln) (30 °C): -0.927 ± 0.15
self-splicing fitness (ln) (37 °C): -0.0873 ± 0.21

UGUUAGCAAUAUUACGGACC
self-splicing fitness (ln) (30 °C): 0.127 ± 0.12
self-splicing fitness (ln) (37 °C): 0.443 ± 0.16

AUGCAGCAAUAUUACGUCUU
self-splicing fitness (ln) (30 °C): 0.0107 ± 0.076
self-splicing fitness (ln) (37 °C): 0.303 ± 0.082

GACAAGCAAUAUUACGCAAC
self-splicing fitness (ln) (30 °C): -2.72 ± 0.14
self-splicing fitness (ln) (37 °C): -2.15 ± 0.24

UCGGAGCAAUAUUACGCUGA
self-splicing fitness (ln) (30 °C): -2.56 ± 0.29
self-splicing fitness (ln) (37 °C): -2.16 ± 0.2

AGCGAGCAAUAUUACGAAAG
self-splicing fitness (ln) (37 °C): -0.117 ± 0.3

AUCGAGCAAUAUUACGGAAG
self-splicing fitness (ln) (37 °C): -0.716 ± 0.16

CCCCAGCAAUAUUACGUAGU
self-splicing fitness (ln) (30 °C): -3.09 ± 0.078
self-splicing fitness (ln) (37 °C): -3.07 ± 0.16

ACCAAGCAAUAUUACGCUGC
self-splicing fitness (ln) (30 °C): -1.62 ± 0.063
self-splicing fitness (ln) (37 °C): -0.906 ± 0.076

CUCCAGCAAUAUUACGGGGC
self-splicing fitness (ln) (30 °C): -4.13 ± 0.23
self-splicing fitness (ln) (37 °C): -2.56 ± 0.17

UUAGAGCAAUAUUACGAUUC
self-splicing fitness (ln) (30 °C): -2.62 ± 0.25
self-splicing fitness (ln) (37 °C): -2.44 ± 0.35

CAAUAGCAAUAUUACGUAAG
self-splicing fitness (ln) (30 °C): 0.0257 ± 0.049
self-splicing fitness (ln) (37 °C): 0.121 ± 0.062

CGAAAGCAAUAUUACGUGAU
self-splicing fitness (ln) (30 °C): -2.36 ± 0.11
self-splicing fitness (ln) (37 °C): -1.95 ± 0.14

UCUAAGCAAUAUUACGGUAG
self-splicing fitness (ln) (30 °C): -2.09 ± 0.11
self-splicing fitness (ln) (37 °C): -0.881 ± 0.11
